Numbered stars: 1 amine (or outer) side, 2 acyl side, 3 side chain; on linkers, the order of the positions; unused ones are H or OH. Bridge positions count the residues as written; N and C are the ends. Ends that are not written are not given here. Phenylene(1,4-NHCOCH2)2 = O=C(C[*:1])Nc1ccc(NC(=O)C[*:2])cc1
Tests used:
CHIP = biological target: T1, CHIP (Homo sapiens, UniProt Q9UNE7); assay: Naive Library Presenter Screening (phage, NGS), CHIP; type: binding; details: CHIP clusters (C83, C84); for interaction data, BLANK: Blank = Media only; for interaction data at Target Concentration 10: target concentration 10 nM; for interaction data at Target Concentration 30: target concentration 30 nM; for interaction data at Target Concentration 100: target concentration 100 nM; for interaction data at Target Concentration 300: target concentration 300 nM; for interaction data at Target Concentration 1000: target concentration 1000 nM
T1 construct: N-term truncated CHIP (also known as STUB1, Uniprot ID: Q9UNE7, residues 23-303); made in house; host or cells: E. coli BL21 CodonPlus
T1 sequence (Q9UNE7 23-303): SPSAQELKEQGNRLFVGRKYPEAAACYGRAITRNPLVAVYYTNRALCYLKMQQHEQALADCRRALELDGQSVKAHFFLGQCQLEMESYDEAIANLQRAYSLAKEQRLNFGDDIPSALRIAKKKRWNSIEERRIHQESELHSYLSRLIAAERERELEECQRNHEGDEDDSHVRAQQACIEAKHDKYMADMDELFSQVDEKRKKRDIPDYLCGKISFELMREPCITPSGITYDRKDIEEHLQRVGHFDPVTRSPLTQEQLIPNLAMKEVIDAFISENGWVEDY
Method: To conduct phage library screening, previously described procedures were utilized in accordance with the present disclosure.
Next-generation sequencing was performed as described in accordance with the present disclosure.
Hit ID and Clustering is performed according to a described procedure in accordance with the present disclosure.

RNF31 UBA domain = biological target: T2, RNF31 UBA domain (Homo sapiens, UniProt Q96EP0); assay: Phage Library Screening with NGS, RNF31 UBA domain; type: binding; details: for phage screen NGS read-out at Target Concentration 10 / phage screen NGS read-out at Target Concentration 30 / phage screen NGS read-out at Target Concentration 100 / phage screen NGS read-out at Target Concentration 300: no competitor; for Phage library screen NGS readout, Target Concentration 10 / Phage library screen NGS readout, Target Concentration 30 / Phage library screen NGS readout, Target Concentration 100 / Phage library screen NGS readout, Target Concentration 300 / Phage library screen NGS readout, Target Concentration 1000: RNF31 UBA domain cluster C46; for Phage library screen NGS readout, BLANK: cluster C46
T2 construct: RNF31 UBA domain protein (residues 480-639) with N-terminal Thioredoxin-TEV-6×his-yBBr-3C tags; Thioredoxin (N, cleaved yes); made in house; host or cells: E. coli BL21 (DE3) pLysS
T2 sequence (Q96EP0 480-639): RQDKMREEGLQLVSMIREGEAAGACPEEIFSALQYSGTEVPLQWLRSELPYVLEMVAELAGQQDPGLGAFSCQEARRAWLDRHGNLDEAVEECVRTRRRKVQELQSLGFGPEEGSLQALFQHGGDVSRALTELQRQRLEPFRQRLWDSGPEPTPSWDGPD

[1] = target concentration 1000, first column
[2] = target concentration 1000, second column

Row | Sequence | interaction data, BLANK (CHIP; first column) | interaction data, BLANK (CHIP; second column) | interaction data at Target Concentration 10 (CHIP) | interaction data at Target Concentration 30 (CHIP) | interaction data at Target Concentration 100 (CHIP) | interaction data at Target Concentration 300 (CHIP) | interaction data at Target Concentration 1000 (CHIP; first column) | interaction data at Target Concentration 1000 (CHIP; second column) | phage screen NGS read-out at Target Concentration 10 (RNF31 UBA domain) | phage screen NGS read-out at Target Concentration 30 (RNF31 UBA domain) | phage screen NGS read-out at Target Concentration 100 (RNF31 UBA domain) | phage screen NGS read-out at Target Concentration 300 (RNF31 UBA domain) | other results
1 | DPAELFCTEAADICMVD (linker 7-14 via Phenylene(1,4-NHCOCH2)2 (inferred)) | 0 | 0 | 0 | 0 | 0 | 18 | 13 | 22 |  |  |  |  | 
2 | DPAETFCWDAADICMVD (linker 7-14 via Phenylene(1,4-NHCOCH2)2 (inferred)) | 0 | 0 | 0 | 0 | 1 | 17 | 7 | 32 |  |  |  |  | 
3 | DPAEYACYHAASICNVD (linker 7-14 via Phenylene(1,4-NHCOCH2)2 (inferred)) | 0 | 0 | 0 | 0 | 54 | 61 | 31 | 91 |  |  |  |  | 
4 | DPAFDACQFAAAMCDHQ (linker 7-14 via Phenylene(1,4-NHCOCH2)2 (inferred)) | 0 | 0 | 0 | 30 | 23 | 39 | 80 | 248 |  |  |  |  | 
5 | DPAFDRCQWAAALCMMN (linker 7-14 via Phenylene(1,4-NHCOCH2)2 (inferred)) | 0 | 0 | 0 | 0 | 4 | 13 | 31 | 76 |  |  |  |  | 
6 | DPAFEQCQFAAAMCLHH (linker 7-14 via Phenylene(1,4-NHCOCH2)2 (inferred)) | 0 | 0 | 0 | 6 | 1 | 17 | 42 | 21 |  |  |  |  | 
7 | DPAFERCQLAAAFCYDS (linker 7-14 via Phenylene(1,4-NHCOCH2)2 (inferred)) | 0 | 0 | 0 | 0 | 2 | 15 | 60 | 47 |  |  |  |  | 
8 | DPAFEVCQFAAATCSSN (linker 7-14 via Phenylene(1,4-NHCOCH2)2 (inferred)) | 0 | 0 | 0 | 0 | 8 | 10 | 6 | 30 |  |  |  |  | 
9 | DPARYHCEAAAAWCELL |  |  |  |  |  |  |  |  | 0 | 0 | 0 | 8 | 
10 | DPASASCLSAAIYCSMF |  |  |  |  |  |  |  |  |  |  |  |  | Phage library screen NGS readout, Target Concentration 10 (RNF31 UBA domain): 5; Phage library screen NGS readout, Target Concentration 30 (RNF31 UBA domain): 17; Phage library screen NGS readout, Target Concentration 100 (RNF31 UBA domain): 122; Phage library screen NGS readout, Target Concentration 300 (RNF31 UBA domain): 255; Phage library screen NGS readout, Target Concentration 1000 (RNF31 UBA domain; [1]): 247; Phage library screen NGS readout, Target Concentration 1000 (RNF31 UBA domain; [2]): 297; Phage library screen NGS readout, BLANK (RNF31 UBA domain; column 1 of 5): 0; Phage library screen NGS readout, BLANK (RNF31 UBA domain; column 2 of 5): 0; Phage library screen NGS readout, BLANK (RNF31 UBA domain; column 3 of 5): 1; Phage library screen NGS readout, BLANK (RNF31 UBA domain; column 4 of 5): 0; Phage library screen NGS readout, BLANK (RNF31 UBA domain; column 5 of 5): 0
11 | DPASIHCAAAALWCDIL |  |  |  |  |  |  |  |  | 0 | 0 | 1 | 8 | 
12 | DPASIICMLAADNCLYE |  |  |  |  |  |  |  |  | 0 | 0 | 0 | 0 | 
13 | DPASMVCLSAAVYCAMH |  |  |  |  |  |  |  |  | 1 | 15 | 38 | 77 | 
14 | DPASSHCQSAAIWCYLM |  |  |  |  |  |  |  |  | 1 | 0 | 6 | 35 | 
15 | DPATLVCTMAANNCIYR |  |  |  |  |  |  |  |  | 0 | 0 | 0 | 1 | 
16 | DPATQHCLAAAMWCHLI |  |  |  |  |  |  |  |  | 0 | 0 | 1 | 3 | 
17 | DPAVQSCLSAAVYCAFR |  |  |  |  |  |  |  |  |  |  |  |  | Phage library screen NGS readout, Target Concentration 10 (RNF31 UBA domain): 2; Phage library screen NGS readout, Target Concentration 30 (RNF31 UBA domain): 9; Phage library screen NGS readout, Target Concentration 100 (RNF31 UBA domain): 68; Phage library screen NGS readout, Target Concentration 300 (RNF31 UBA domain): 106; Phage library screen NGS readout, Target Concentration 1000 (RNF31 UBA domain; [1]): 117; Phage library screen NGS readout, Target Concentration 1000 (RNF31 UBA domain; [2]): 118; Phage library screen NGS readout, BLANK (RNF31 UBA domain; column 1 of 5): 0; Phage library screen NGS readout, BLANK (RNF31 UBA domain; column 2 of 5): 1; Phage library screen NGS readout, BLANK (RNF31 UBA domain; column 3 of 5): 2; Phage library screen NGS readout, BLANK (RNF31 UBA domain; column 4 of 5): 0; Phage library screen NGS readout, BLANK (RNF31 UBA domain; column 5 of 5): 1
18 | DPAYEHCVAAAYWCYLL |  |  |  |  |  |  |  |  | 1 | 0 | 11 | 30 | 
